T1: adrenodoxin (human, UniProt P10109 61-184)
T1 sequence (looked up): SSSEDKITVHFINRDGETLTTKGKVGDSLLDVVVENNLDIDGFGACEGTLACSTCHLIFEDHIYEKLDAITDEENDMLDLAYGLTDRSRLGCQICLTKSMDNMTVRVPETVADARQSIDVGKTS


What was measured:
Experiment in all cases: SPR
[1] = target: T1, adrenodoxin
[2] = target: T1, adrenodoxin; remark: listed apart in the source
[3] = target: T1, adrenodoxin; remark: listed apart in the source
[4] = target: T1, adrenodoxin; remark: listed apart in the source
[5] = target: T1, adrenodoxin; remark: listed apart in the source
[6] = target: T1, adrenodoxin; remark: listed apart in the source
[7] = target: T1, adrenodoxin; remark: listed apart in the source
[8] = target: T1, adrenodoxin; remark: listed apart in the source
[9] = target: T1, adrenodoxin; remark: listed apart in the source

Row | fold increase of Kd with 11-deoxycorticosterone against ligand-free [1] [fold] | fold increase of koff with 11-deoxycorticosterone against ligand-free [1] [fold] | fold increase of Kd with 11-deoxycortisol against ligand-free [2] [fold] | fold change of Kd with corticosterone against ligand-free [3] [fold] | fold decrease of kon with 20S-hydroxycholesterol against ligand-free [4] [fold] | fold increase of Kd with 20S-hydroxycholesterol against ligand-free [4] [fold] | fold decrease of kon with 25-hydroxycholesterol against ligand-free [5] [fold] | fold increase of Kd with 25-hydroxycholesterol against ligand-free [5] [fold] | fold decrease of kon with 20R,22R-dihydroxycholesterol against ligand-free [6] [fold] | fold increase of Kd with 20R,22R-dihydroxycholesterol against cholesterol [6] [fold] | fold increase of Kd with 20R,22R-dihydroxycholesterol against ligand-free [6] [fold] | fold increase of koff with 20R,22R-dihydroxycholesterol against ligand-free [6] [fold] | fold increase of Kd with 22R-hydroxycholesterol against cholesterol [7] [fold] | fold increase of Kd with pregnenolone against cholesterol [8] [fold] | fold change of koff with cholesterol against ligand-free [9] [fold] | fold increase of kon with cholesterol against ligand-free [9] [fold] | fold increase of kon with 11-deoxycorticosterone against ligand-free [1] [fold] | fold increase of koff with 11-deoxycortisol against ligand-free [2] [fold] | fold increase of kon with 11-deoxycortisol against ligand-free [2] [fold] | Binder
1 | 11 | 7 | 4.7 | 1.7 |  |  |  |  |  |  |  |  |  |  |  |  |  |  |  | cytochrome P450 CYP11B2 (aldosterone synthase) (enzyme, human, UniProt P19099 25-503, looked up) GTRAARAPRTVLPFEAMPQHPGNRWLRLLQIWREQGYEHLHLEMHQTFQELGPIFRYNLGGPRMVCVMLPEDVEKLQQVDSLHPCRMILEPWVAYRQHRGHKCGVFLLNGPEWRFNRLRLNPDVLSPKAVQRFLPMVDAVARDFSQALKKKVLQNARGSLTLDVQPSIFHYTIEASNLALFGERLGLVGHSPSSASLNFLHALEVMFKSTVQLMFMPRSLSRWISPKVWKEHFEAWDCIFQYGDNCIQKIYQELAFNRPQHYTGIVAELLLKAELSLEAIKANSMELTAGSVDTTAFPLLMTLFELARNPDVQQILRQESLAAAASISEHPQKATTELPLLRAALKETLRLYPVGLFLERVVSSDLVLQNYHIPAGTLVQVFLYSLGRNAALFPRPERYNPQRWLDIRGSGRNFHHVPFGFGMRQCLGRRLAEAEMLLLLHHVLKHFLVETLTQEDIKMVYSFILRPGTSPLLTFRAIN
2 |  |  |  |  | 2 | 3.1 | 2 | 4.6 | 2 | ~10 | ~3.4 | ~1.8 | 4 | ~21 | ~1.5 | 4 |  |  |  | cytochrome P450 CYP11A1 (cholesterol side chain cleavage enzyme) (enzyme, human) STRSPRPFNEIPSPGDNGWLNLYHFWRETGTHKVHLHHVQNFQKYGPIYREKLGNVESVYVIDPEDVALLFKSEGPNPERFLIPPWVAYHQYYQRPIGVLLKKSAAWKKDRVALNQEVMAPEATKNFLPLLDAVSRDFVSVLHRRIKKAGSGNYSGDISDDLFRFAFESITNVIFGERQGMLEEVVNPEAQRFIDAIYQMFHTSVPMLNLPPDLFRLFRTKTWKDHVAAWDVIFSKADIYTQNFYWELRQKGSVHHDYRGILYRLLGDSKMSFEDIKANVTEMLAGGVDTTSMTLQWHLYEMARNLKVQDMLRAEVLAARHQAQGDMATMLQLVPLLKASIKETLRLHPISVTLQRYLVNDLVLRDYMIPAKTLVQVAIYALGREPTFFFDPENFDPTRWLSKDKNITYFRNLGFGWGVRQCLGRRIAELEMTIFLINMLENFRVEIQHLSDVGTTFNLILMPEKPISFTFWPFNQEATQQ
3 | 2.4 | 4.4 |  |  |  |  |  |  |  |  |  |  |  |  |  |  | ~2 | ~3.2 | 4 | cytochrome P450 CYP11B1 (11ß-hydroxylase) (enzyme, human) VPRTVLPFEAMPRRPGNRWLRLLQIWREQGYEDLHLEVHQTFQELGPIFRYDLGGAGMVCVMLPEDVEKLQQVDSLHPHRMSLEPWVAYRQHRGHKCGVFLLNGPEWRFNRLRLNPEVLSPNAVQRFLPMVDAVARDFSQALKKKVLQNARGSLTLDVQPSIFHYTIEASNLALFGERLGLVGHSPSSASLNFLHALEVMFKSTVQLMFMPRSLSRWTSPKVWKEHFEAWDCIFQYGDNCIQKIYQELAFSRPQQYTSIVAELLLNAELSPDAIKANSMELTAGSVDTTVFPLLMTLFELARNPNVQQALRQESLAAAASISEHPQKATTELPLLRAALKETLRLYPVGLFLERVASSDLVLQNYHIPAGTLVRVFLYSLGRNPALFPRPERYNPQRWLDIRGSGRNFYHVPFGFGMRQCLGRRLAEAEMLLLLHHVLKHLQVETLTQEDIKMVYSFILRPSMFPLLTFRAIN

Reference: article doi:10.1101/2020.11.13.381095 (bioRxiv, 2020)
